This note sets out measurements from article PMC6994669 (Nature Communications, 2020).

B1: mouse Liprin-α3 tSAM (residues 808–1114) (domain or fragment)
chain: not shown
notes: mouse Liprin-α3, tandem SAM domain (αN, SAM1-SAM3), residues 808-1114; also called WT; source: E. coli Rosetta (DE3), purified (Glutathione Sepharose, Resource Q, GST cleaved off by HRV3c protease, Superdex 200); not shown: GST, N-terminal, cleaved

Bounds are passed on as bounds.

The target of experiment [1] is T1, mouse CASK N-terminal kinase domain (residues 1–323) fused with the N-terminal His6-tag (mouse, UniProt O70589 1-323).
T1 construct: mouse CASK (calcium/calmodulin-dependent serine kinase), N-terminal kinase domain, residues 1-323; Cloned into pET21a, the same vector as the C-terminally tagged PTPδ D2-His6, yet the methods call this tag N-terminal; also called His6-CASK; N-terminal kinase domain of CASK; not shown: His6, N-terminal, kept
T1 sequence (looked up): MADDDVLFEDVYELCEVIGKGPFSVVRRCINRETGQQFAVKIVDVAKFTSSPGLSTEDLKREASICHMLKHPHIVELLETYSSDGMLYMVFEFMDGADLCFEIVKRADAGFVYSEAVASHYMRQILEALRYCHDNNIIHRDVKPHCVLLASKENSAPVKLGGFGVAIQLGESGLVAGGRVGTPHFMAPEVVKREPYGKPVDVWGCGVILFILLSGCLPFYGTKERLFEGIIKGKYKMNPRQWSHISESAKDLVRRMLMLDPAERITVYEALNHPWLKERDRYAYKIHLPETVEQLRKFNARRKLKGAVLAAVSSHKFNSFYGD
In words: pull-down; GST pull-down (Fig. 5c): Liprin-α3 tSAM and/or His6-CASK mixed with GST-PTPδ D2 at equimolar ratio (20 µM) in PBS with 0.1% Triton X-100, then immobilised on Glutathione Sepharose FF; eluted with glutathione; SDS-PAGE, Coomassie. To be noted: both partners purified.

The target in experiment [2] is B1. In words: SPR; Biacore T200, 25 °C, 10 mM Hepes-NaOH pH 7.5, 150 mM NaCl, 0.005% Tween-20; wild-type or mutant PTPδ D2-His6 amine-coupled on a CM5 chip; wild-type or mutant Liprin-α3 tSAM injected, twofold dilutions from 40 µM to 39 nM; equilibrium KD. The following applies: both partners purified.

For orientation: Kd means the equilibrium constant for the complex coming apart. A lower Kd goes with a tighter complex.

As for B1, the binding result in experiment [1] was “binds”.

B2: PTPδ D2-His6 L1380A (domain or fragment)
chain: NTEVPARNLYAYIQKLTQIETGENVTGMELEFKRLASSKAHTSRFISANLPCNKFKNRLVNIMPYESTRVCLQPIRGVEGSDYINASFLDGYRQQKAYIATQGPLAETTEDFWRMLWEHNSTIVVMLTKLREMGREKCHQYWPAERSARYQYFVVDPMAEYNMPQYIAREFKVTDARDGQSRTVRQFQFTDWPEQGVPKSGEGFIDFIGQVHKTKEQFGQDGPISVHCSAGVGRTGVFITLSIVLERMRYEGVVDIFQTVKMLRTQRPAMVQTEDQYQFCYRAALEYLGSFDHYAT
For the molecule B2, the Kd in experiment [2] was > 40 µM.

B3: PTPδ D2-His6 D1504A (domain or fragment)
chain: NTEVPARNLYAYIQKLTQIETGENVTGMELEFKRLASSKAHTSRFISANLPCNKFKNRLVNIMPYESTRVCLQPIRGVEGSDYINASFLDGYRQQKAYIATQGPLAETTEDFWRMLWEHNSTIVVMLTKLREMGREKCHQYWPAERSARYQYFVVDPMAEYNMPQYILREFKVTDARDGQSRTVRQFQFTDWPEQGVPKSGEGFIDFIGQVHKTKEQFGQDGPISVHCSAGVGRTGVFITLSIVLERMRYEGVVDIFQTVKMLRTQRPAMVQTEDQYQFCYRAALEYLGSFAHYAT
In experiment [2], B3 yielded a Kd of 18 µM.

B4: PTPδ D2-His6 F1399A (domain or fragment)
chain: NTEVPARNLYAYIQKLTQIETGENVTGMELEFKRLASSKAHTSRFISANLPCNKFKNRLVNIMPYESTRVCLQPIRGVEGSDYINASFLDGYRQQKAYIATQGPLAETTEDFWRMLWEHNSTIVVMLTKLREMGREKCHQYWPAERSARYQYFVVDPMAEYNMPQYILREFKVTDARDGQSRTVRQAQFTDWPEQGVPKSGEGFIDFIGQVHKTKEQFGQDGPISVHCSAGVGRTGVFITLSIVLERMRYEGVVDIFQTVKMLRTQRPAMVQTEDQYQFCYRAALEYLGSFDHYAT
B4 yielded a Kd in experiment [2] of 32 µM.

B5: PTPδ D2-His6 Y1506A (domain or fragment)
chain: NTEVPARNLYAYIQKLTQIETGENVTGMELEFKRLASSKAHTSRFISANLPCNKFKNRLVNIMPYESTRVCLQPIRGVEGSDYINASFLDGYRQQKAYIATQGPLAETTEDFWRMLWEHNSTIVVMLTKLREMGREKCHQYWPAERSARYQYFVVDPMAEYNMPQYILREFKVTDARDGQSRTVRQFQFTDWPEQGVPKSGEGFIDFIGQVHKTKEQFGQDGPISVHCSAGVGRTGVFITLSIVLERMRYEGVVDIFQTVKMLRTQRPAMVQTEDQYQFCYRAALEYLGSFDHAAT
In turn, B5 showed a Kd in experiment [2] of 11.4 µM.
